Measurements: paper PMC11548754, “DRN facilitates WUS transcriptional regulatory activity by chromatin remodeling to regulate shoot stem cell homeostasis in Arabidopsis” (PLOS Biology, 2024)

T1: GST-BRM (Arabidopsis, UniProt Q6EVK6 1-976)
T1 construct: The pull-down methods call it GST-BRM; also called BRAHMA; source: E. coli BL21 (DE3), purified (glutathione resin); not shown: GST, N-terminal, kept
T1 sequence (looked up): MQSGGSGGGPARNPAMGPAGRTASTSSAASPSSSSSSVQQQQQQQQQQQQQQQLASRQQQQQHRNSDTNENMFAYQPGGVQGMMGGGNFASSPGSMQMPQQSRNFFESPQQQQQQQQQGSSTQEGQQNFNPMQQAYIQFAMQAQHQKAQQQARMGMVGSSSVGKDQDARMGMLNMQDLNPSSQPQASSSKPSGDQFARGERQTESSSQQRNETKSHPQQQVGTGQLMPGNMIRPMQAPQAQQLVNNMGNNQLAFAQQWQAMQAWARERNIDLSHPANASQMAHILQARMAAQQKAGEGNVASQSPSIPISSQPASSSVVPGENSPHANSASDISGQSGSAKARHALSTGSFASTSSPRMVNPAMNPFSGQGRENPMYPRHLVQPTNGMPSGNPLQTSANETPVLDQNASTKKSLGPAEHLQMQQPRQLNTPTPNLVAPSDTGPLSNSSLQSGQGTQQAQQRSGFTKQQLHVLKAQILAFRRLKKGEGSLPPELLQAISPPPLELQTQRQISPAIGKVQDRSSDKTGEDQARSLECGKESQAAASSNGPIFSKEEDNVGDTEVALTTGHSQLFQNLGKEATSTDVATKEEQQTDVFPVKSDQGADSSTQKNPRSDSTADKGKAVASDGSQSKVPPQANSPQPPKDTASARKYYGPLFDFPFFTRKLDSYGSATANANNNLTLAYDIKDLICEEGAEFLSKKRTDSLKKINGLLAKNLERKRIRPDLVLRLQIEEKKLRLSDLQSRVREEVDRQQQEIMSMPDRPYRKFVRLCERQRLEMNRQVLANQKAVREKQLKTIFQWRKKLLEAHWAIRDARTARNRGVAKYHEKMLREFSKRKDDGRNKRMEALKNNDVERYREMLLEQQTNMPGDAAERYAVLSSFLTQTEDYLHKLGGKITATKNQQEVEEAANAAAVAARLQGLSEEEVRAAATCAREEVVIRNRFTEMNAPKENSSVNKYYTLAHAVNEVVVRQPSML

B1: 8His-MBP-DRN (natural protein)
chain: not shown
notes: also called DORNRÖSCHEN; source: E. coli BL21 (DE3), purified (Ni resin); for EMSA also size-exclusion chromatography; not shown: 8His, N-terminal, kept; MBP, N-terminal, kept

Tests used:
GST-BRM = biological target: T1, GST-BRM; assay: pull-down; beads loaded with protein and soluble protein rotated at 4°C for 4 h in pull-down buffer (200 mM NaCl, 1 mM EDTA, 20 mM Tris-HCl, 0.15 mM PMSF, pH 8.0); blots with anti-GST and anti-His; conditions: both partners purified
[1] = biological target: the molecule itself; assay: pull-down; competition: agarose beads with 8His-MBP-WUS incubated with soluble GST-WUS for 6 h before soluble 8His-MBP-DRN was added; binding group without DRN
8His-MBP-DRN = biological target: B1; assay: native gel or EMSA; EMSA with biotin-labelled CLV3 promoter probe (−1,090 to −1,064); GST-WUS alone or with 8His-MBP-DRN; super-shift; conditions: both partners purified
Sequence of 8His-MBP-DRN (Q9SAD4 whole entry): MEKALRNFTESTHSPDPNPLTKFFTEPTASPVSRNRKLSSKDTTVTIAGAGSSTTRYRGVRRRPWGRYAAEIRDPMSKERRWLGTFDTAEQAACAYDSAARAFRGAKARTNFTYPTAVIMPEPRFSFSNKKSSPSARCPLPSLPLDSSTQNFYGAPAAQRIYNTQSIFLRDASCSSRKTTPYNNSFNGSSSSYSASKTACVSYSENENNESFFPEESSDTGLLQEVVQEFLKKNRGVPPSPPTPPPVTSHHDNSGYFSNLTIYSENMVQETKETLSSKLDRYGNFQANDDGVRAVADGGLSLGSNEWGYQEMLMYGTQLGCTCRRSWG

binding result (GST-BRM) | binding result (8His-MBP-DRN) | Binder | binding result [1]
binds | – | B1 | –
– | binds | GST-WUS (natural protein, Arabidopsis, UniProt Q9SB92 1-292, looked up, also called WUSCHEL; glutathione-S-transferase (GST)-WUS; source: E. coli BL21 (DE3), purified (glutathione resin); for EMSA also size-exclusion chromatography; not shown: GST, N-terminal, kept) MEPPQHQHHHHQADQESGNNNNNKSGSGGYTCRQTSTRWTPTTEQIKILKELYYNNAIRSPTADQIQKITARLRQFGKIEGKNVFYWFQNHKARERQKKRFNGTNMTTPSSSPNSVMMAANDHYHPLLHHHHGVPMQRPANSVNVKLNQDHHLYHHNKPYPSFNNGNLNHASSGTECGVVNASNGYMSSHVYGSMEQDCSMNYNNVGGGWANMDHHYSSAPYNFFDRAKPLFGLEGHQEEEECGGDAYLEHRRTLPLFPMHGEDHINGGSGAIWKYGQSEVRPCASLELRLN | binds
